Laboratory results taken from US20220332804A1 (CSL INNOVATION, published 2022).

What was measured:
Test in all cases: SPR; KD relative to WT C2;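 also: biacore SPR at 37 °C, anti-C2 mAbs captured on an anti-human IgG chip, alanine or serine C2 surface mutants tested, KD from 1:1 fit compared with wild-type C2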
human C2 A326S = molecular target: T1, human C2 A326S (human, UniProt P06681 21-752)
T1 sequence: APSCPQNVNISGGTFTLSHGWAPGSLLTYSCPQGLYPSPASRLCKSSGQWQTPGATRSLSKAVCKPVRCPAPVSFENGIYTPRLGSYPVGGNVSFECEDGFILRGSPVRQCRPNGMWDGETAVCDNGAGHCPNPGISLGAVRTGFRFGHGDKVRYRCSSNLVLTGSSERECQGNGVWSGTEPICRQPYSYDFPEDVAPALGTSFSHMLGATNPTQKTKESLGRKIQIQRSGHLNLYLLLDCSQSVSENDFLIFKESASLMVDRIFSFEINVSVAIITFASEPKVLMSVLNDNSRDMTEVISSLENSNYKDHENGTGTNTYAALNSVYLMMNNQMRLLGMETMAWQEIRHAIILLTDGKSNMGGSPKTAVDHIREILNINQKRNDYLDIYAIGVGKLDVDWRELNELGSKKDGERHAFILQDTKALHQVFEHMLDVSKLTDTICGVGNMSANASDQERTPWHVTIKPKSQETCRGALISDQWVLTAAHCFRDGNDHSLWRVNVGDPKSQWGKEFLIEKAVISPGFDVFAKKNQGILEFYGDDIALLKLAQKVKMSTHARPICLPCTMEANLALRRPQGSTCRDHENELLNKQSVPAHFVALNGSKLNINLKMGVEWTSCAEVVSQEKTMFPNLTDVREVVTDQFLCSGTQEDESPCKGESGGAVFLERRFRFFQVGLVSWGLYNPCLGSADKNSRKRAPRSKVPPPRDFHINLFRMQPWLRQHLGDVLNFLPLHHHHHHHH

human C2 K329A = molecular target: T2, human C2 K329A (human, UniProt P06681 21-752)
T2 sequence: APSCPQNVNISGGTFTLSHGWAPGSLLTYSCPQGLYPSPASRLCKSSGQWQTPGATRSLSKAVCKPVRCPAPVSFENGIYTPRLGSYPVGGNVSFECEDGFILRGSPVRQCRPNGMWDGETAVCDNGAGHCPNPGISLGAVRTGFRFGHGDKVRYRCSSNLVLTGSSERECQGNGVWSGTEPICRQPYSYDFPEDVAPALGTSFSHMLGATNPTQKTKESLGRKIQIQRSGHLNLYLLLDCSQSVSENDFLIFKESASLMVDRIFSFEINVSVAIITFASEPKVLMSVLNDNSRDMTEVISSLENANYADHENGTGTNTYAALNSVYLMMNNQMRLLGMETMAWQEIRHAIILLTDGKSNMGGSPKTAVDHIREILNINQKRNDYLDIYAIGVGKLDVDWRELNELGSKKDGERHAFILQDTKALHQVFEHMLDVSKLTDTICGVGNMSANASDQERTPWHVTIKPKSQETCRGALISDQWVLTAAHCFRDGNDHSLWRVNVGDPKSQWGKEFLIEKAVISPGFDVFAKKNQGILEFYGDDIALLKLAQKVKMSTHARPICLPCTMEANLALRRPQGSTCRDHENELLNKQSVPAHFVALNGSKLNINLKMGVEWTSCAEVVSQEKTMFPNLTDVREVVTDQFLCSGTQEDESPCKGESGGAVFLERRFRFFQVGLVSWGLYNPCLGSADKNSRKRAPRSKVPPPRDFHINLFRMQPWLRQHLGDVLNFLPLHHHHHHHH

human C2 S428A = molecular target: T3, human C2 S428A (human, UniProt P06681 21-752)
T3 sequence: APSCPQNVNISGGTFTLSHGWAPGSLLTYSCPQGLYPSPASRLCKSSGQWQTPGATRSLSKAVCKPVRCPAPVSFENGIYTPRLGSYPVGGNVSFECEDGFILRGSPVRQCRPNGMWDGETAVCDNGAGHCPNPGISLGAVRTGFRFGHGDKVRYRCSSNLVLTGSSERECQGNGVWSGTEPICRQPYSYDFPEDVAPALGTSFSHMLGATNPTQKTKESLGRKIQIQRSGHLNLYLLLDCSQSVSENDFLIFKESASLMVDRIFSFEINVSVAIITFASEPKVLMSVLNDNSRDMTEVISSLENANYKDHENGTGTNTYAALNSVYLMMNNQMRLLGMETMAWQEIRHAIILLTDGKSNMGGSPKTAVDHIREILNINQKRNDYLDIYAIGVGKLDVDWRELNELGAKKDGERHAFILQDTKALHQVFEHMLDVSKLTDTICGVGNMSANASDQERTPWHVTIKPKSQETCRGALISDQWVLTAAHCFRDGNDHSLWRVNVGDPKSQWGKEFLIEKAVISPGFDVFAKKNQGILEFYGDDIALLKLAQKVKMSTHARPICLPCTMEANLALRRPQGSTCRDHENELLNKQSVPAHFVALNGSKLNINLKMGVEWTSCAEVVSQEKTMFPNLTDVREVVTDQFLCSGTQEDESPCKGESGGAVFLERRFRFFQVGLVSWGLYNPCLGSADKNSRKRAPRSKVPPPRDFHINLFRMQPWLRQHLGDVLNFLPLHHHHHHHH

human C2 E450A = molecular target: T4, human C2 E450A (human, UniProt P06681 21-752)
T4 sequence: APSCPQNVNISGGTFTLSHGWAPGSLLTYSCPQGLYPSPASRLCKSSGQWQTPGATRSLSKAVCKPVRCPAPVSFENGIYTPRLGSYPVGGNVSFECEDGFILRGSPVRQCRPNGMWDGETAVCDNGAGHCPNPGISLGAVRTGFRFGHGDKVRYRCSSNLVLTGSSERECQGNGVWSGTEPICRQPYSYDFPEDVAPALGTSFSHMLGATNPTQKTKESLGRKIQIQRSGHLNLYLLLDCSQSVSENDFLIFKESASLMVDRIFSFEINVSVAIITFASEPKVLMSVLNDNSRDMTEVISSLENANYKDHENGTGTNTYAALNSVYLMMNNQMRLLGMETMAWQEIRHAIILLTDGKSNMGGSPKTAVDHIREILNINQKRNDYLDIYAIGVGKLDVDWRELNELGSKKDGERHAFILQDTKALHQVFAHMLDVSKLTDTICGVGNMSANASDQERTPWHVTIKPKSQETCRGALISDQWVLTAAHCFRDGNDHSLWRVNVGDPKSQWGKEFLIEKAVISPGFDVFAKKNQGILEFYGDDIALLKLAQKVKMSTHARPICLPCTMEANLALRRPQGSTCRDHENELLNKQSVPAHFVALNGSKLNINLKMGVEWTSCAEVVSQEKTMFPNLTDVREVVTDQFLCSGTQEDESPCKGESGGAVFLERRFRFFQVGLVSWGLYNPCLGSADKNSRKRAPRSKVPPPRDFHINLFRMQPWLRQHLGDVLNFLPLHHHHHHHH

Fold diff (human C2 A326S): 1 fold
Fold diff (human C2 K329A): 2 fold
Fold diff (human C2 S428A): 2 fold
Fold diff (human C2 E450A): 20 fold
B1: RF16-214 (antibody, V domains shown)
VH: EVQLLESGGGLVQPGGSLRLSCAASGFTFSWYQMMWVRQAPGKGLEWVSRIYPSGGGTAYADSVKGRFTISRDNSKNTLYLQMNSLRAEDTAVYYCARDAGYGDNWGQGTLVTVSS
VL: QSALTQPPSVSVSPGQTASITCSGDKLGEKYASWYQQKAGQSPVMVIYQDRKRPSGIPERFSGSNSGNTATLTISGTQAMDEADYYCQAWDTRAVVFGGGTKLTVLG
